Results reported in patent US20250381307A1, “RETRO-AAV AND USE IN TREATING NEURODEGENERATIVE DISEASES” (priority 2023, published 2025).
Changes are numbered by the printed parent chain. Numbers in names are those of the source.

Assays:
substantia nigra = experiment: Promoter activity level in substantia nigra after AAV injection into the SNr; type: in vivo, mice; details: numbers of YFP-expressing neurons per animal
Text: (§1) Brain profiles of two epigenetic marks for enhancers and promoters, monomethylation of histone H3 lysine 4 (H3K4me1) and acetylation of histone H3 lysine 27 (H3K27ac) were checked and approximately 2 kilobase-long sequences around the transcriptional start site (TSS) that have high levels of H3K4me1 and/or H3K27ac were identified in mouse brain. Homologous sequences at equivalent positions of the human genome were then cloned onto an AAV backbone, and the activity of the homologous sequences in directing reporter expression was tested in mice after injections of AAVs into the SNr (FIG. 3A-C, TABLE 3).
(§2) Mice were anesthetized with sodium pentobarbital (Nembutal; 80 mg/kg, i.p.), and then placed into a stereotaxic device (KOPF). Eye cream was applied on both corneas to avoid dehydration. The skull above the targeted areas was thinned with a dental drill and carefully removed. Injections were conducted with a 10 μL syringe connected to a 33-Gauge needle (Neuros; Hamilton), using a microsyringe pump (Legato 130, KD Scientific). A total volume of 200 nL virus was injected into the SNr at a speed of 20 nL/min. The coordinates for the SNr were 3.4 mm posterior, 1.3 mm lateral, 4.8 mm ventral to the bregma.
(§3) Images were acquired using a confocal microscope (Carl Zeiss, LSM880) and an Axiolmager.Z1 microscope with apotome (Carl Zeiss). Brain structures were identified microscopically and in digital photos using a mouse brain atlas. To analyze the number of EYFP+ cells in the striatum, slices from rostral to caudal striatum were used. Every sixth section was analyzed, and numbers of EYFP+ cells were multiplied by six to acquire the approximate total number and mean number of cells per animal. Images were processed using ImageJ (NIH, USA), and final quantifications were independently performed manually by two blinded experimenters.

[1] = test system: striatonigral projection neurons (striatal MSNs); experiment: Retrograde labeling of striatal MSNs after AAV injection into the SNr (EYFP+ cell counting); type: in vivo, mice; details: for reporter-labeled MSNs by promoter (FIG. 4B): SNr injection, n=3 mice, mean±SEM; for Activity Level STR: striatum, numbers of YFP-expressing neurons per animal; for Labeling Efficiency in Striatonigral Pathway: AAV8R capsid mutants, numbers of labeled neurons per animal
Text: as §1, §2, §3

G88P2: 2259-bp promoter from the gene GPR88 (SEQ ID NO: 44)
Activity Level SN (substantia nigra): + (<5k)
reporter-labeled MSNs by promoter (FIG. 4B) [1]: 36290±3705
Activity Level STR [1]: ++++ (>25k)

R9P1: tested promoter from gene RGS9, 2152 bp (SEQ ID NO: 47)
Activity Level SN (substantia nigra): + (<5k)
Activity Level STR [1]: +++ (10k-25k)

B1: AAV8R4: AAV8R capsid mutant R490Q (SEQ ID NO: 5) (protein)
chain: MAADGYLPDWLEDNLSEGIREWWALKPGAPKPKANQQKQDDGRGLVLPGYKYLGPFNGLDKGEPVNAADAAALEHDKAYDQQLQAGDNPYLRYNHADAEFQERLQEDTSFGGNLGRAVFQAKKRVLEPLGLVEEGAKTAPGKKRPVEPSPQRSPDSSTGIGKKGQQPARKRLNFGQTGDSESVPDPQPLGEPPAAPSGVGPNTMAAGGGAPMADNNEGADGVGSSSGNWHCDSTWLGDRVITTSTRTWALPTYNNHLYKQISNGTSGGATNDNTYFGYSTPWGYFDFNRFHCHFSPRDWQRLINNNWGFRPKRLSFKLFNIQVKEVTQNEGTKTIANNLTSTIQVFTDSEYQLPYVLGSAHQGCLPPFPADVFMIPQYGYLTLNDGSQAVGRSSFYCLEYFPSQMLRTGNNFQFTYTFEDVPFHSSYAHSQSLDRLMNPLIDQYLYYLSRTQTTGGTANTQTLGFSQGGPNTMANQAKNWLPGPCYRQQQVSTTTGQNNNSNFAWTAGTKYHLNGRNSLANPGIAMATHKDDEERFFPSNGILIFGKQNAARDNADYSDVMLTSEEEIKTTNPVATEEYGIVADNLQRGNLADQDYTKTARQAATADVNSQGALPGMVWQNRDVYLQGPIWAKIPHTDGNFHPSPLMGGFGLKHPPPQILIKNTPVPADPPTTFNQSKLNSFITQYSTGQVSVEIEWELQKENSKRWNPEIQYTSNYYKSINVDFAVNTEGVYSEPRPIGTRYLTRNL
Labeling Efficiency in Striatonigral Pathway [1]: + (<5k)

B2: AAV8R14: AAV8R capsid mutant V125I + A606S + T495A (SEQ ID NO: 15) (protein)
chain: B1 chain with V125I, Q490R, T495A, A606S
Labeling Efficiency in Striatonigral Pathway [1]: ++ (5k-10k)

B3: AAV8R2: AAV8R capsid mutant N411S (SEQ ID NO: 3) (protein)
chain: B1 chain with N411S, Q490R
Labeling Efficiency in Striatonigral Pathway [1]: + (<5k)

B4: AAV8R11: AAV8R capsid mutant V125I + T495A (SEQ ID NO: 12) (protein)
chain: B1 chain with V125I, Q490R, T495A
Labeling Efficiency in Striatonigral Pathway [1]: + (<5k)

B5: AAV8R8: AAV8R capsid mutant T495A (SEQ ID NO: 9) (protein)
chain: B1 chain with Q490R, T495A
Labeling Efficiency in Striatonigral Pathway [1]: + (<5k)

B6: AAV8R1: AAV8R capsid mutant V183E (SEQ ID NO: 2) (protein)
chain: B1 chain with V183E, Q490R
Labeling Efficiency in Striatonigral Pathway [1]: + (<5k)

B7: AAV8R9: AAV8R capsid mutant V125I + F536Y (SEQ ID NO: 10) (protein)
chain: B1 chain with V125I, Q490R, F536Y
Labeling Efficiency in Striatonigral Pathway [1]: + (<5k)

B8: AAV8R5: AAV8R capsid mutant V125I (SEQ ID NO: 6) (protein)
chain: B1 chain with V125I, Q490R
Labeling Efficiency in Striatonigral Pathway [1]: + (<5k)

B9: AAV8R7: AAV8R capsid mutant A606S (SEQ ID NO: 8) (protein)
chain: B1 chain with Q490R, A606S
Labeling Efficiency in Striatonigral Pathway [1]: + (<5k)

B10: AAV8R3: AAV8R capsid mutant Y447F (SEQ ID NO: 4) (protein)
chain: B1 chain with Y447F, Q490R
Labeling Efficiency in Striatonigral Pathway [1]: + (<5k)

B11: AAV8R6: AAV8R capsid mutant F536Y (SEQ ID NO: 7) (protein)
chain: B1 chain with Q490R, F536Y
Labeling Efficiency in Striatonigral Pathway [1]: + (<5k)

B12: AAV8R13: AAV8R capsid mutant V125I + F536Y + T495A (SEQ ID NO: 14) (protein)
chain: B1 chain with V125I, Q490R, T495A, F536Y
Labeling Efficiency in Striatonigral Pathway [1]: ++ (5k-10k)

B13: AAV8R10: AAV8R capsid mutant V125I + A606S (SEQ ID NO: 11) (protein)
chain: B1 chain with V125I, Q490R, A606S
Labeling Efficiency in Striatonigral Pathway [1]: + (<5k)

B14: G88P3: 1395-bp shortened derivative of G88P2 promoter (SEQ ID NO: 45) (nucleic acid, listed as Homo sapiens)
DNA: TCTAGATGTACCACTGACATCTGCTTTAAATCTTTTGCCCATTTCATTTTTACCCTCTAACCATTTCATTACTAAAACACAAAACAAACTCCGGAAAGGAGTTTGTTGATGAGAAAACACTGAAAGTACGATTTAAATTGAGGAATGGAGATTTTCTGTGGATAATTGTCTATGTTCCACTTTACCAAAGAAAAATGAATTTCAAGTAGTGCATAAAGTAATTCTCGTTAAAAAATGTGGGAATAAAGAGATCAGTCCTGGGTACTGGGAATATATTTATCTCACAGAAAAATCTTGCCCACAAAATGCATCAGACTGAGATGAAATACTCTAGGGTATATTAAATTTTATTCTAATATTGAAGGGAGGGAAAAAAAGGACGGAAAGAAAAATGAAACAGGATGAAAAATAAGGTGATTGGGAGAGAGAAAAGACAGAGAAACTTGTTAACGACAGGACTTTCTGAGCAAGATATTTTTCTTCCTTTTACAAGTTGGAAGCTATTGAATAATTCATGCCAAGCGTGGAAAGGCTGTCTTTTCCCTGGATGATGTATAACTAAGCAGGAGAGAGCTTCGAGTGGGTTCACCACATCAGCCACCACTCCTGCTTCTGAGCACAGGGTGCTCTCCTCTTGAGCTCAGCTTCTGCTTTTGCAGCCAAGCATTCTTGCTGCTGCTGCCTGCCTGCCCACCCGCCTGGGCTTGCAGCCCGCCACTTTACTTTCTCCAGCCCTGATACCAGCTGAGAAGTCTCCCTGCAGCTGCTAGTTCCTGCCCAGGACCATGTGTGTGGATGCTGCTTGGGAGAAGCGGGCACTTGCTCCTGGCACTGATCCCAGCTGAGTTTCTCCTGTTGATTTCTGGACCACTGATGCTGTTGCTGAGGAGGTATTTCCCGGCATCCCTCCCCCTGAGACACCGGCTAAGGACCAGCCTAAACGCAAGGTAACCTTCACCTCTTTCCCATGGGATTTTCCCCAGCTGGGATATCTCTGCTTTCTCCTGGAACTAGGTCCTCCAGCTGGCAACATATCTCTCTCTCTCTCTCTCTCTCTCTCTCTCTCTCTCTGTGTGTGTGTGTGTGTGTTGGGGGAGAAGAGGAGACTGTTTTAGGTATTGCTCTGTCCTAGGGCTTCCCCGATACCTGCTGAATCCAATGCAAAGTGGCCTTTCCCCTGGCTCTGGAGACATTTCCGAGGCAGGCACCTGTCATTTGCCACCCCCGTCCTCCTCCTCGAGCTCCCTTTCTCCCCCTCCCCCAGCCCATTATTCTGCTTCAGCCTTTTGTGTCAGTGGCAGAGGGCTGAAGGGATGTCTTTGCCCTTCTGGCAGGCAGGACAGTGTCAGGATGGACCGCGCTGCCAGAAGCCGACGCTAGCGAGGGAGGTGTGAA
Activity Level SN (substantia nigra): + (<5k)
reporter-labeled MSNs by promoter (FIG. 4B) [1]: 37026±6646
Activity Level STR [1]: ++++ (>25k)
labeled MSNs per mouse ([1]; viruses expressing EYFP, injection into the SNr (FIG. 4B)): 3.7±0.66 ×104 MSNs per mouse
